Experiments:
Assay in all cases: Steady state kinetic parameters of fluorogenic substrates with purified AKR1C isozymes
Type in all cases: biochemical, human
Settings in all cases: other: isozyme 1C2, potassium phosphate buffer pH 6, NADPH, fluorimetric
[1] = substrate: CC(=O)c1cc(=O)oc2c3c(ccc12)NCCC3
Source text: (§1) AKR1C2 and AKR1C3 Selective Probes: Probes (5a-5i) were examined as substrates for the four purified human HSD isozymes (AKR1C1-AKR1C4) under standard assay conditions [catalytic quantities of enzyme, an excess of cofactor (NADPH)]. The initial reaction rates were used to derive standard kinetic parameters (kcat and Km, Materials and Methods).
(§2) Substrate tolerance of AKR1Cs: Isozyme Activity with 5a-5i: Activity of the second generation of fluorogenic substrates with the AKR1C isozymes was determined as follows. To a STARNA semi-micro fluorimeter cell (with 4 polished windows) was added 100 μL of 1 M potassium phosphate buffer (pH 6), 840 μL doubly deionized water, and 20 μL of 12.5 mM NADPH. After mixing the aqueous components thoroughly, 20 μL of acetonitrile was added as a cosolvent and mixed well. 20 μL of 2.5 mM second generation fluorogenic ketone in acetonitrile (5a-5i) was then added and mixed. 4 μL of undiluted AKR1C (provided generously by the Penning lab at concentrations of 2.5 mg/mL) were then added to the cuvette for a total of 10 μg purified enzyme in the 1 mL assay volume. Fluorescence arising from the respective alcohol reduction product was then monitored over the course of 5-10 minutes.
(§3) Binding constant and catalytic rates (Km and kcat) of the second generation of fluorogenic substrates was determined as follows. To a STARNA semi-micro fluorometer cell (with 4 polished windows) was added 100 μL of 1 M potassium phosphate buffer (pH 6), 840 μL doubly deionized water, and 20 AL of 12.5 mM NADPH. After mixing the aqueous components thoroughly, 20 μL of acetonitrile was added as a cosolvent and mixed well. 20 μL of the second generation fluorogenic ketone (5a-5i) was then added and mixed to achieve assay concentrations of 5Km to Km/5. To initiate the reduction, 2 or 4 μL of diluted AKR1C (1:2 to 1:100, depending on the kinetics of a particular isozyme's reduction of a substrate) was then added to the cuvette. Fluorescence arising from the respective alcohol reduction product was then monitored over the course of 3 minutes (Excitation and emission band pass slits both at 4 nm, lamp 700 V, λexc 410 nm, λem 510). The rate of product formation, expressed in units of nanomoles per minute, were calculated according to previously published procedures (Wierzchowski, J.; Dafeldecker, W. P.; Holmquist, B.; Vallee, B. L. Anal. Biochem. 1989, 178, 57-62):
(§4) initial rate=[nst×(Ft−F0)/(Fst)]/t (1)
(§5) where Ft and F0 represent the fluorescence at times t and 0 minutes, nst is the nanomoles of product in a known concentration of product, and Fst is the fluorescence resulting from nst of product. Kinetic parameters were approximated by GraFit (Erithacus Software, Surrey, UK) nonlinear regression analysis program to fit the untransformed data to a hyperbolic function as originally described (Wierzchowski, J.; Dafeldecker, W. P.; Holmquist, B.; Vallee, B. L. Anal. Biochem. 1989, 178, 57-62). Reported enzymatic kinetic parameters are the average of three independent determinations from three different preparations of substrate and enzyme.

[2] = substrate: CC(=O)c1cc(=O)oc2c3c4c(cc12)CCCN4CCC3
Source text: as §1, §2, §3, §4, §5

[3] = substrate: CC(=O)c1cc(=O)oc2cc(N(C)C)ccc12
Source text: as §1, §2, §3, §4, §5

[4] = substrate: CC(=O)c1cc(=O)oc2cc3c(cc12)CCCN3
Source text: as §1, §2, §3, §4, §5

[5] = substrate: O=C(c1ccccc1)c1cc(=O)oc2c3c4c(cc12)CCCN4CCC3
Source text: as §1, §2, §3, §4, §5

[6] = substrate: O=C1CCc2c1c1cc3c4c(c1oc2=O)CCCN4CCC3
Source text: as §1, §2, §3, §4, §5

B1: AKR1C2 (Homo sapiens) (protein)
chain: MDSKYQCVKLNDGHFMPVLGFGTYAPAEVPKSKALEAVKLAIEAGFHHIDSAHVYNNEEQVGLAIRSKIADGSVKREDIFYTSKLWSNSHRPELVRPALERSLKNLQLDYVDLYLIHFPVSVKPGEEVIPKDENGKILFDTVDLCATWEAMEKCKDAGLAKSIGVSNFNHRLLEMILNKPGLKYKPVCNQVECHPYFNQRKLLDFCKSKDIVLVAYSALGSHREEPWVDPNSPVLLEDPVLCALAKKHKRTPALIALRYQLQRGVVVLAKSYNEQRIRQNVQVFEFQLTSEEMKAIDGLNRNVRYLTLDIFAGPPNYPFSDEY
notes: gift of the Penning lab (University of Pennsylvania School of Medicine)
Km [1]: 4.8 µM | Km [2]: 7.3 µM | Km [3]: 7.2 µM | Km [4]: 43.3 ± 4.4 4.3 ± 0.2 μM | Km [5]: 3 µM | Km [6]: 4.5 µM | kcat [6]: 1.6 0.40 7.2 no activity | kcat/Km [6]: 0.39 0.08 56 min^−1 μM^−1

— patent US20100048604A1, “Ligands for Aldoketoreductases” (priority 2004, published 2010)
